Source: patent US20220267469A1 (LIPUM, published 2022)
Residue numbers refer to the chain shown, from its start.

T1: Biotinylated human BSSL (human, UniProt P19835 21-753, Biotinylated on glycosacarides, 30-40 biotin/BSSL)
T1 construct: hBSSL biotinylated in house; also called b-hBSSL; human BSSL-biotin
T1 sequence: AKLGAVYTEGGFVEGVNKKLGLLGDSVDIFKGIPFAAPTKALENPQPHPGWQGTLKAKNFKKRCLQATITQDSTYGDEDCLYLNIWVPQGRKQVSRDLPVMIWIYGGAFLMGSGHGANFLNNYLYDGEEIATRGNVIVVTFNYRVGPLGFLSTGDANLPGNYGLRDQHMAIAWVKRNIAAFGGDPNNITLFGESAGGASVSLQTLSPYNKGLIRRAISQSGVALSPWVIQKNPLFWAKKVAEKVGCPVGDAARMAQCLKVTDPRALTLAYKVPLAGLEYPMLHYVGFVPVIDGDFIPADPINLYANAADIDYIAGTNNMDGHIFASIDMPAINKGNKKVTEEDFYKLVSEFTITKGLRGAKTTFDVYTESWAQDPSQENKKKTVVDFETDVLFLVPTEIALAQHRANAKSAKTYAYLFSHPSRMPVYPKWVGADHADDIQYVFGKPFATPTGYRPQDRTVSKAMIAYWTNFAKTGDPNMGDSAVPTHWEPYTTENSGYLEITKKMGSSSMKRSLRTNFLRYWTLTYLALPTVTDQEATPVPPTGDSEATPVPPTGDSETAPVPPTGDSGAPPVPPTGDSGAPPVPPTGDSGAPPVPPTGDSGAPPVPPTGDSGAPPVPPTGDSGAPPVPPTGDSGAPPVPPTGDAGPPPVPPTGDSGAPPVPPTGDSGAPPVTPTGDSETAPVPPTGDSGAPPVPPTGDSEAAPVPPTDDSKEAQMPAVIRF

T2: Mouse BSSL, recombinant (mouse, UniProt Q64285 21-599)
T2 construct: Bought (R&D Systems, Cat. no 5658-CE); also called mBSSL; murine BSSL
T2 sequence: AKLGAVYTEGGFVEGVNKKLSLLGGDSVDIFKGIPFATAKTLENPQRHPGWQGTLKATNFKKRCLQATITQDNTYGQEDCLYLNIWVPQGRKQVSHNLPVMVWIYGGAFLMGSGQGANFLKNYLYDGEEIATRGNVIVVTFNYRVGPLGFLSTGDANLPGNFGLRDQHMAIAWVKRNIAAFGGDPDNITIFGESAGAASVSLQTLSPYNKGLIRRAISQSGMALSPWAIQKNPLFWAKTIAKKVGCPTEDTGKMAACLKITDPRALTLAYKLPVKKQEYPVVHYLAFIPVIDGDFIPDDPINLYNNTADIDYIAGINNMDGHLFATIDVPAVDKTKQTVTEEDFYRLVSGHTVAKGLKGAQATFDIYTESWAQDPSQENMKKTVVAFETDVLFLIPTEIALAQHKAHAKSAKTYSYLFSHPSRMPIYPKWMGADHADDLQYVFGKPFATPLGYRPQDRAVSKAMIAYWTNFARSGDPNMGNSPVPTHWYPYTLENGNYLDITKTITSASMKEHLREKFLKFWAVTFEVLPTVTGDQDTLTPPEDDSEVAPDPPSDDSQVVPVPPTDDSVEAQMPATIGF

T3: Human BSSL (bile salt-stimulated lipase), native (human, UniProt P19835 21-753)
T3 construct: Native full-length protein purified from human milk (Astra Hässle AB); also called hBSSL; non-biotinylated human BSSL
T3 sequence: T1 sequence

B1: AS20 hIgG4 S228P (antibody)
heavy: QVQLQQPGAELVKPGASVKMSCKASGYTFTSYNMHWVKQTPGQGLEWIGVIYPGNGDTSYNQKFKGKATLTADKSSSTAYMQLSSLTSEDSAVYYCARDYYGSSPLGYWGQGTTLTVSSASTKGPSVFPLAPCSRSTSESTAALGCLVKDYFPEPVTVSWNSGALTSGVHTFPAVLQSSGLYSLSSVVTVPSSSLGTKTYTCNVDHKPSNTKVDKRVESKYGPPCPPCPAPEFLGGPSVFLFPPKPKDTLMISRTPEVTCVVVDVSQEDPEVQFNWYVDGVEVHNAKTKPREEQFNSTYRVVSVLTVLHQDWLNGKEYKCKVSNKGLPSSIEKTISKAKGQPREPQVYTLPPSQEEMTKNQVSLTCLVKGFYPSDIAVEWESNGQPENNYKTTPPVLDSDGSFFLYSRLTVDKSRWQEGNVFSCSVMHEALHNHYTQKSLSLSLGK
light: QIVLTQSPAVMSASPGEKVTMTCSASSSISYMHWYQQKPGTSPKRWIYDTSKLASGVPARFSGSGSGTSYSLTISSMEAEDAATYYCHQRSSYPTFGGGTKLEIKRTVAAPSVFIFPPSDEQLKSGTASVVCLLNNFYPREAKVQWKVDNALQSGNSQESVTEQDSKDSTYSLSSTLTLSKADYEKHKVYACEVTHQGLSSPVTKSFNRGEC
notes: also called AS20 IgG4; AS20 (parental clone)
B2: S-SL048-11 hIgG4 S228P (antibody, V domains shown)
VH: QVQLVQSGAEVKKPGASVKVSCKASGYTFTSYNMHWVRQAPGQGLEWMGVIYPGDGATSYAQKFKGRVTMTRDTSTSTVYMELSSLRSEDTAVYYCARDYYGSSPLGYWGQGTLVTVSS
VL: DIQMTQSPSSLSASVGDRVTITCSASPSISYMNWYQQKPGKAPKLLIYATSSLASGVPSRFSGSGSGTDFTLTISSLQPEDFATYYCHQRSSYPTFGQGTKLEIKR
notes: also called clone 11; mAb11
B3: S-SL048-118 hIgG4 S228P (antibody, V domains shown)
VH: B2 VH with Y52N
VL: B2 VL with A54P, Y93S
notes: also called clone 118; mAb118

Legend:
Biotinylated human BSSL [1] = target: T1, Biotinylated human BSSL; experiment: flow cytometry displacement assay; 2.0 ug antibody, 1 ug b-hBSSL
Method: (§1) The 28 BSSL-specific hIgG4 antibodies and the five reference antibodies at different concentrations (ranging from 0.5 μg to 3.0 μg per reaction; see Table 10) were added to b-hBSSL (1 μg per reaction, see Table 2) in round-bottom polystyrene tubes, lx PBS (pH 7.4) was added to a final volume of 20 μl and the antibody/b-hBSSL mixtures were incubated for 30 min. at +4° C. to facilitate binding of antibodies to BSSL. Buffy coat (50 μl) was then added to each antibody/b-hBSSL mixture and incubation continued for another 30 min at +4° C. Thereafter, 2 ml of FACS lysing solution (BD Biosciences) was added and the cells were incubated for 10 min at room temperature in order to lyse erythrocytes and fix the white blood cells. The cells were then centrifuged for 5 min. at 200×g, the resulting pellets were washed by adding 2 ml of FACS buffer (1×PBS supplemented with 1% FCS and 0.1% NaN3) and centrifuged again. Finally, the supernatants were discarded and the cells were resuspended in the last drop of liquid, approximately 50 μl.
(§2) 5 μl of BV421-labelled anti-human CD14 (BD Biosciences) and 5 μl of BB515-labelled streptavidin (BD Biosciences) was added to each tube and incubated for 30 min, at +4° C., protected from light. Thereafter, cells were washed twice with FACS buffer, resuspended in 500 μl FACS buffer, and run on BD LSRII flow cytometer (BD Biosciences). Finally, data were analyzed using FlowJo software (BD Biosciences).

Mouse BSSL, recombinant [2] = target: T2, Mouse BSSL, recombinant; experiment: SPR steady state, captured by anti-Fab, Absolute Antibody batch
Method: (§3) Kinetic parameters of the hIgG4 S228P clones were determined by SPR using BIACORE® T200 (GE Healthcare). An anti-Fab antibody (GE #28958325) was immobilized on a CM5 S sensor chip by primary amine coupling using NHS-EDC chemistry. The hIgG4 antibodies were captured by the anti-Fab antibody, and subsequently, five different concentrations of hBSSL (1:5 dilutions, 0.08-50 nM) or mBSSL (1:2 dilutions, 50-800 nM) were injected over the surface. The sensor chip surface was regenerated with 10 mM glycine-HCl pH 2.1. For binding to human BSSL, single cycle kinetic data was fitted to a 1:1 binding model and kinetic parameters were retrieved using software BlAevaluation. For mouse BSSL, a steady state analysis was performed by plotting the response level at equilibrium against each concentration, and KD values were retrieved by the BlAevalution software.

Biotinylated human BSSL [3] = target: T1, Biotinylated human BSSL; experiment: flow cytometry displacement assay; 1.0 ug antibody, 1 ug b-hBSSL
Method: as §1, §2

[4] = target: T3, Human BSSL (bile salt-stimulated …); experiment: SPR single cycle kinetics, captured by anti-Fab, Absolute Antibody batch
Method: as §3

Biotinylated human BSSL [5] = target: T1, Biotinylated human BSSL; experiment: flow cytometry displacement assay; 0.5 ug antibody, 1 ug b-hBSSL
Method: as §1, §2

Mouse BSSL, recombinant [6] = target: T2, Mouse BSSL, recombinant; experiment: SPR steady state, hIgG4 S228P captured by anti-Fab
How it was run: (§4)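 hIgG4 S228P captured on an immobilized anti-Fab surface; five BSSL concentrations injected, 1:5 dilutions from 50 nM (human) or from 500 nM (mouse). Human BSSL: single-cycle kinetics, 1:1 fit. Mouse BSSL: KD from steady-state equilibrium response versus concentration. Regeneration with 10 mM glycine-HCl pH 2.1.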

[7] = target: T3, Human BSSL (bile salt-stimulated …); experiment: SPR single cycle kinetics, hIgG4 S228P captured by anti-Fab
How it was run: as §4

Biotinylated human BSSL [8] = target: T1, Biotinylated human BSSL; experiment: flow cytometry displacement assay; 1.5 ug antibody, 1 ug b-hBSSL
How it was run: (§5)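 Antibody (0.5–3.0 μg per reaction) preincubated with 1 μg biotinylated human BSSL in PBS pH 7.4, 30 min at 4 °C, then with human buffy coat 30 min at 4 °C. After erythrocyte lysis/fixation, bound BSSL on CD14+ monocytes detected by labelled streptavidin via flow cytometry.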

[9] = target: T3, Human BSSL (bile salt-stimulated …); experiment: cell-based or functional assay
[10] = target: T3, Human BSSL (bile salt-stimulated …); experiment: cell-based or functional assay; remark: listed apart in the source
Biotinylated human BSSL [11] = target: T1, Biotinylated human BSSL; experiment: flow cytometry displacement assay; 3.0 ug antibody, 1 ug b-hBSSL
How it was run: as §5

Binder	Kd (Mouse BSSL, recombinant [2]) [µM]	percentage reduction of b-hBSSL binding to CD14+ monocytes (Biotinylated human BSSL [3]) [%]	Kd [4] [µM]	percentage reduction of b-hBSSL binding to CD14+ monocytes (Biotinylated human BSSL [5]) [%]	Kd (Mouse BSSL, recombinant [6]) [µM]	Kd [7] [µM]	percentage reduction of b-hBSSL binding to CD14+ monocytes (Biotinylated human BSSL [8]) [%]	BSSL hydrolysis of triglycerides, relative value (no antibody = 100%); 0.19 ug antibody [9] [%]	BSSL hydrolysis of triglycerides, relative value (no antibody = 100%); 0.38 ug antibody [9] [%]	BSSL hydrolysis of triglycerides, relative value (no antibody = 100%); 0.75 ug antibody [9] [%]	BSSL hydrolysis of triglycerides, relative value (no antibody = 100%); 1.5 ug antibody [9] [%]	BSSL hydrolysis of triglycerides, relative value (no antibody = 100%); 3.0 ug antibody [9] [%]	BSSL hydrolysis of triglycerides, relative value (no antibody = 100%); 6.0 ug antibody [9] [%]	BSSL hydrolysis of cholesterol esters, relative value (no antibody = 100%); 0.19 ug antibody [10] [%]	BSSL hydrolysis of cholesterol esters, relative value (no antibody = 100%); 0.38 ug antibody [10] [%]	BSSL hydrolysis of cholesterol esters, relative value (no antibody = 100%); 0.75 ug antibody [10] [%]	BSSL hydrolysis of cholesterol esters, relative value (no antibody = 100%); 1.5 ug antibody [10] [%]	BSSL hydrolysis of cholesterol esters, relative value (no antibody = 100%); 3.0 ug antibody [10] [%]	BSSL hydrolysis of cholesterol esters, relative value (no antibody = 100%); 6.0 ug antibody [10] [%]	percentage reduction of b-hBSSL binding to CD14+ monocytes (Biotinylated human BSSL [11]) [%]	other results
B1	0.223	21	0.0006	19	0.161	0.0006	–	–	–	–	–	–	–	–	–	–	–	–	–	–	percentage reduction of b-hBSSL binding to CD14+ monocytes (Biotinylated human BSSL [1]): 58%
B2	0.065	9	0.0006	1	0.024	0.0007	60	109	114	125	112	120	113	96.2	98.2	92.2	95.2	93.7	90.2	68	–
B3	0.07	–	0.0005	–	0.095	0.0009	23	107	106	102	88	93.9	119	105	103	110	105	106	102	58	–
